From patent US20120039802A1 (published 2012)

target: T1, cMet-Fc fusion protein (extracellular domain of the cMet receptor expressed as an Fc-fusion protein) (human, UniProt P08581 25-932); test: phage ELISA on cMet-Fc, competitor HGF 100 ng/mL
T1 construct: extracellular domain; also called soluble cMet-Fc-fusion protein; soluble cMet receptor; not shown: Fc part
Summary of the method: (§1)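 Plates coated with 0.5 μg/mL cMet-Fc, with TRAIL-Fc as background, then blocked with 3% BSA. Bound phage detected with HRP anti-M13 antibody.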

T1 sequence (P08581 25-932): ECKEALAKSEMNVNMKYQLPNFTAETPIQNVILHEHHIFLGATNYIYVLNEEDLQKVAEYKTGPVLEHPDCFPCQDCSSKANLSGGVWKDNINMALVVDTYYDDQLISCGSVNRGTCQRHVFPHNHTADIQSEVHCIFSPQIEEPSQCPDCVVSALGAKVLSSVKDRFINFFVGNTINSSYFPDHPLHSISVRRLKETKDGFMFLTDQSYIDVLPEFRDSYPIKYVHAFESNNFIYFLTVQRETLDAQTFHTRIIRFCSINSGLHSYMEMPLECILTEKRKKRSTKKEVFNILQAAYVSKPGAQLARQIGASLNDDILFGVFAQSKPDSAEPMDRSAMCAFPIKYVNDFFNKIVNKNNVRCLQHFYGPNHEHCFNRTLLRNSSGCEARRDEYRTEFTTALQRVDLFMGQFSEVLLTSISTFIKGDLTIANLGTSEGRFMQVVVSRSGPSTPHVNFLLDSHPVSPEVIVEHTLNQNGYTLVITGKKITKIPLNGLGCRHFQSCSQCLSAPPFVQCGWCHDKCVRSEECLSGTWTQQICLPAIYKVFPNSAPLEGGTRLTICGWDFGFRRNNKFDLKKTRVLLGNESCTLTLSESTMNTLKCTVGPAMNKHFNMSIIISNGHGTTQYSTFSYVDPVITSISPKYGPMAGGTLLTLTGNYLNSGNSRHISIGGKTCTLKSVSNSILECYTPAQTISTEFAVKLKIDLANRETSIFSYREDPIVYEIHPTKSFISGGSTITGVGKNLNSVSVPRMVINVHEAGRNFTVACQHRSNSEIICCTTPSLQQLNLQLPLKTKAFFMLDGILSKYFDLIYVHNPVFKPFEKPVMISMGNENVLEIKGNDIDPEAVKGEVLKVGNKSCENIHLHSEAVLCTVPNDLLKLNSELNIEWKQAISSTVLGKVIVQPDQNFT

| Binder | % of binding in the absence of HGF |
| --- | --- |
| AQHWDYDSGSDFWFPVFFLEHH [79-B02 peptide-displaying phage (SEQ ID NO: 475)] | 102% |
| AQHGYLSPLKQYQMSHVEFWTY [94-A06 peptide-displaying phage (SEQ ID NO: 476)] | 84% |
| AQFSGLVMYGRTHEVQWTFGSM [94-G02 peptide-displaying phage (SEQ ID NO: 477)] | 108% |
| AQAEWVITSEEFYWKMADFGPP [75-B12 peptide-displaying phage (SEQ ID NO: 478)] | 95% |
| AQWPHDGLVHWGEVIMLRF [117-F04 peptide-displaying phage (SEQ ID NO: 479)] | 93% |
| AQWNQWDEFMWFLNPPPIGLMW [151-B08 peptide-displaying phage (SEQ ID NO: 480)] | 102% |
| AQDNTADQMFNGFHVLAMYMV [117-E09 peptide-displaying phage (SEQ ID NO: 481)] | 109% |
| AQSDHDHAHWGVKHWPFRRYQ [93-B10 peptide-displaying phage (SEQ ID NO: 482)] | 0% |
| AQLFQYLWHDDPQGAFFQLSMW [98-F05 peptide-displaying phage (SEQ ID NO: 483)] | 88% |
| AQHVVTLTLIQMPFAFNFEPRM [118-B12 peptide-displaying phage (SEQ ID NO: 484)] | 98% |
| AGWFECEFGFWGCNWLGT [437-A09 peptide-displaying phage (SEQ ID NO: 018)] | 89% |
| AQVGESLDDGWTFFSDKWFDFF [27-D10 peptide-displaying phage (SEQ ID NO: 485)] | 111% |
| AQFMYEKEHYVMSISLPGLWFY [122-D07 peptide-displaying phage (SEQ ID NO: 486)] | 102% |
| AQHMDPAEWDWFIRIYSPVVNP [149-E06 peptide-displaying phage (SEQ ID NO: 487)] | 80% |
| AQMWHRVHDPGYTFEVTWLWDN [166-H04 peptide-displaying phage (SEQ ID NO: 488)] | 77% |
| AQWNWDMGFMWTTDSAQVQPSM [96-D06 peptide-displaying phage (SEQ ID NO: 489)] | 154% |
| AQKTWFLEADLFQMFQEVTWQF [103-C04 peptide-displaying phage (SEQ ID NO: 490)] | 73% |

target: T1, cMet-Fc fusion protein (extracellular …); test: phage ELISA, cMet-Fc vs TRAIL-Fc
Summary of the method: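 Specificity check: phage displaying peptides incubated 2 h at room temperature on wells coated with 0.5 μg/mL cMet-Fc versus TRAIL-Fc, after blocking with 3% BSA/PBST. HRP-anti-M13 antibody detected binding phage.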

| Binder | Protein ELISA (fold over background) |
| --- | --- |
| AQHWDYDSGSDFWFPVFFLEHH [79-B02 peptide-displaying phage (SEQ ID NO: 475)] | 3.5 fold |
| AQHGYLSPLKQYQMSHVEFWTY [94-A06 peptide-displaying phage (SEQ ID NO: 476)] | 3.5 fold |
| AQFSGLVMYGRTHEVQWTFGSM [94-G02 peptide-displaying phage (SEQ ID NO: 477)] | 3.5 fold |
| AQAEWVITSEEFYWKMADFGPP [75-B12 peptide-displaying phage (SEQ ID NO: 478)] | 3.4 fold |
| AQWPHDGLVHWGEVIMLRF [117-F04 peptide-displaying phage (SEQ ID NO: 479)] | 3.3 fold |
| AQWNQWDEFMWFLNPPPIGLMW [151-B08 peptide-displaying phage (SEQ ID NO: 480)] | 3.3 fold |
| AQDNTADQMFNGFHVLAMYMV [117-E09 peptide-displaying phage (SEQ ID NO: 481)] | 3.3 fold |
| AQSDHDHAHWGVKHWPFRRYQ [93-B10 peptide-displaying phage (SEQ ID NO: 482)] | 3.1 fold |
| AQLFQYLWHDDPQGAFFQLSMW [98-F05 peptide-displaying phage (SEQ ID NO: 483)] | 3.1 fold |
| AQHVVTLTLIQMPFAFNFEPRM [118-B12 peptide-displaying phage (SEQ ID NO: 484)] | 3.1 fold |
| AGWFECEFGFWGCNWLGT [437-A09 peptide-displaying phage (SEQ ID NO: 018)] | 3.9 fold |
| AQVGESLDDGWTFFSDKWFDFF [27-D10 peptide-displaying phage (SEQ ID NO: 485)] | 3 fold |
| AQFMYEKEHYVMSISLPGLWFY [122-D07 peptide-displaying phage (SEQ ID NO: 486)] | 3 fold |
| AQHMDPAEWDWFIRIYSPVVNP [149-E06 peptide-displaying phage (SEQ ID NO: 487)] | 3 fold |
| AQMWHRVHDPGYTFEVTWLWDN [166-H04 peptide-displaying phage (SEQ ID NO: 488)] | 3 fold |
| AQWNWDMGFMWTTDSAQVQPSM [96-D06 peptide-displaying phage (SEQ ID NO: 489)] | 3 fold |
| AQKTWFLEADLFQMFQEVTWQF [103-C04 peptide-displaying phage (SEQ ID NO: 490)] | 3 fold |

target: T1, cMet-Fc fusion protein (extracellular …); test: phage ELISA on cMet-Fc, competitor HGF 500 ng/mL
Summary of the method: as §1

| Binder | % of binding in the absence of HGF |
| --- | --- |
| AQHWDYDSGSDFWFPVFFLEHH [79-B02 peptide-displaying phage (SEQ ID NO: 475)] | 86% |
| AQHGYLSPLKQYQMSHVEFWTY [94-A06 peptide-displaying phage (SEQ ID NO: 476)] | 96% |
| AQFSGLVMYGRTHEVQWTFGSM [94-G02 peptide-displaying phage (SEQ ID NO: 477)] | 76% |
| AQAEWVITSEEFYWKMADFGPP [75-B12 peptide-displaying phage (SEQ ID NO: 478)] | 108% |
| AQWPHDGLVHWGEVIMLRF [117-F04 peptide-displaying phage (SEQ ID NO: 479)] | 91% |
| AQWNQWDEFMWFLNPPPIGLMW [151-B08 peptide-displaying phage (SEQ ID NO: 480)] | 368% |
| AQDNTADQMFNGFHVLAMYMV [117-E09 peptide-displaying phage (SEQ ID NO: 481)] | 102% |
| AQSDHDHAHWGVKHWPFRRYQ [93-B10 peptide-displaying phage (SEQ ID NO: 482)] | 0% |
| AQLFQYLWHDDPQGAFFQLSMW [98-F05 peptide-displaying phage (SEQ ID NO: 483)] | 57% |
| AQHVVTLTLIQMPFAFNFEPRM [118-B12 peptide-displaying phage (SEQ ID NO: 484)] | 112% |
| AGWFECEFGFWGCNWLGT [437-A09 peptide-displaying phage (SEQ ID NO: 018)] | 78% |
| AQVGESLDDGWTFFSDKWFDFF [27-D10 peptide-displaying phage (SEQ ID NO: 485)] | 131% |
| AQFMYEKEHYVMSISLPGLWFY [122-D07 peptide-displaying phage (SEQ ID NO: 486)] | 92% |
| AQHMDPAEWDWFIRIYSPVVNP [149-E06 peptide-displaying phage (SEQ ID NO: 487)] | 86% |
| AQMWHRVHDPGYTFEVTWLWDN [166-H04 peptide-displaying phage (SEQ ID NO: 488)] | 85% |
| AQWNWDMGFMWTTDSAQVQPSM [96-D06 peptide-displaying phage (SEQ ID NO: 489)] | 151% |
| AQKTWFLEADLFQMFQEVTWQF [103-C04 peptide-displaying phage (SEQ ID NO: 490)] | 86% |

target: T2, human cMet expressed on 3T3 cells (human, UniProt P08581 25-1390); test: whole cell phage ELISA, 3T3 human cMet vs 3T3
T2 construct: whole, on cells; cells fixed with glutaraldehyde; also called cell surface-expressed human cMet; 3T3 cells that over-express human cMet
T2 sequence (P08581 25-1390): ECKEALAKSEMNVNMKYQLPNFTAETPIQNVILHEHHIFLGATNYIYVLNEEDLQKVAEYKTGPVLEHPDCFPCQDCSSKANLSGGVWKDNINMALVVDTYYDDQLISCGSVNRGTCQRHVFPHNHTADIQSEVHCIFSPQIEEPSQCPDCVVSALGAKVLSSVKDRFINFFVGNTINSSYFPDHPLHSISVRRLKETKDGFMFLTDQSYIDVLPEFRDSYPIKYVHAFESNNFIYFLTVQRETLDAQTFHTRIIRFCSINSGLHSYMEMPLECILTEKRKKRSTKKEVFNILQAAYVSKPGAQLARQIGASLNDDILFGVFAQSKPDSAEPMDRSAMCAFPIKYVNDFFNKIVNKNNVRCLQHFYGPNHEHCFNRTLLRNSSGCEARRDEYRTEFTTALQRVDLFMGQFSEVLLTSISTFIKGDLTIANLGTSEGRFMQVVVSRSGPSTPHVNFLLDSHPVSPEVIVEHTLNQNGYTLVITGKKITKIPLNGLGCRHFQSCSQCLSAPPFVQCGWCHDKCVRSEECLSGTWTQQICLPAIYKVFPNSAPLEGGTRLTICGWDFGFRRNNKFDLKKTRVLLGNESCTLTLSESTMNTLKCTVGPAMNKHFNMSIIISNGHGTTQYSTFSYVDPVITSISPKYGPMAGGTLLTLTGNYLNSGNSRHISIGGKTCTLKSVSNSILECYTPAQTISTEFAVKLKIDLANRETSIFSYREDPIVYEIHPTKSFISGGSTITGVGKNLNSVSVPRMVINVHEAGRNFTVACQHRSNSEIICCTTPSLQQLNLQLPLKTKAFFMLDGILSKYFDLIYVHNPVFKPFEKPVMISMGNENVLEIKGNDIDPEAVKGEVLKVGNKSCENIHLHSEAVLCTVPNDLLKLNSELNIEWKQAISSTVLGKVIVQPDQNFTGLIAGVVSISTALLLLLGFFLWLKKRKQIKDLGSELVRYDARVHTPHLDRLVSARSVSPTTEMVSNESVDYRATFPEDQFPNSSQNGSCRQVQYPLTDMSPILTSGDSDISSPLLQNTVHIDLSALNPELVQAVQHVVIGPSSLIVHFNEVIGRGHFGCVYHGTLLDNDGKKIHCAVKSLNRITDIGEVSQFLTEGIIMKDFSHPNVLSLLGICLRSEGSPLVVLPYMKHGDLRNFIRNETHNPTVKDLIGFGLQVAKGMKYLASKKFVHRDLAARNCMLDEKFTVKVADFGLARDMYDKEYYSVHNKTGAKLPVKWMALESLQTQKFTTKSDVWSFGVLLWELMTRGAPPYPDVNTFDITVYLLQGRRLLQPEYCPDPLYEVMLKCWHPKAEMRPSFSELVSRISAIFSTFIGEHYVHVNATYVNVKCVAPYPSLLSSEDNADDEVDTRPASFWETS
Summary of the method: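 Bound phage was detected with an HRP-conjugated anti-M13 antibody after PBST washes. The cells were cMet-over-expressing 3T3, read against plain 3T3.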

| Binder | WC ELISA (fold over background) |
| --- | --- |
| AQHWDYDSGSDFWFPVFFLEHH [79-B02 peptide-displaying phage (SEQ ID NO: 475)] | 1.3 fold |
| AQHGYLSPLKQYQMSHVEFWTY [94-A06 peptide-displaying phage (SEQ ID NO: 476)] | 1.17 fold |
| AQFSGLVMYGRTHEVQWTFGSM [94-G02 peptide-displaying phage (SEQ ID NO: 477)] | 1.3 fold |
| AQAEWVITSEEFYWKMADFGPP [75-B12 peptide-displaying phage (SEQ ID NO: 478)] | 1.23 fold |
| AQWPHDGLVHWGEVIMLRF [117-F04 peptide-displaying phage (SEQ ID NO: 479)] | 1.37 fold |
| AQWNQWDEFMWFLNPPPIGLMW [151-B08 peptide-displaying phage (SEQ ID NO: 480)] | 1.23 fold |
| AQDNTADQMFNGFHVLAMYMV [117-E09 peptide-displaying phage (SEQ ID NO: 481)] | 1.37 fold |
| AQSDHDHAHWGVKHWPFRRYQ [93-B10 peptide-displaying phage (SEQ ID NO: 482)] | 1.2 fold |
| AQLFQYLWHDDPQGAFFQLSMW [98-F05 peptide-displaying phage (SEQ ID NO: 483)] | 1.23 fold |
| AQHVVTLTLIQMPFAFNFEPRM [118-B12 peptide-displaying phage (SEQ ID NO: 484)] | 1.3 fold |
| AGWFECEFGFWGCNWLGT [437-A09 peptide-displaying phage (SEQ ID NO: 018)] | 1.13 fold |
| AQVGESLDDGWTFFSDKWFDFF [27-D10 peptide-displaying phage (SEQ ID NO: 485)] | 1.17 fold |
| AQFMYEKEHYVMSISLPGLWFY [122-D07 peptide-displaying phage (SEQ ID NO: 486)] | 1.63 fold |
| AQHMDPAEWDWFIRIYSPVVNP [149-E06 peptide-displaying phage (SEQ ID NO: 487)] | 1.8 fold |
| AQMWHRVHDPGYTFEVTWLWDN [166-H04 peptide-displaying phage (SEQ ID NO: 488)] | 1.27 fold |
| AQWNWDMGFMWTTDSAQVQPSM [96-D06 peptide-displaying phage (SEQ ID NO: 489)] | 1.37 fold |
| AQKTWFLEADLFQMFQEVTWQF [103-C04 peptide-displaying phage (SEQ ID NO: 490)] | 1.4 fold |
